Test results published in patent US20240101702A1 (PRECISION BIOLOGICS, published 2024).

Target: T1, CEACAM8 (human, UniProt P31997 35-320, limits assumed)
T1 sequence (looked up): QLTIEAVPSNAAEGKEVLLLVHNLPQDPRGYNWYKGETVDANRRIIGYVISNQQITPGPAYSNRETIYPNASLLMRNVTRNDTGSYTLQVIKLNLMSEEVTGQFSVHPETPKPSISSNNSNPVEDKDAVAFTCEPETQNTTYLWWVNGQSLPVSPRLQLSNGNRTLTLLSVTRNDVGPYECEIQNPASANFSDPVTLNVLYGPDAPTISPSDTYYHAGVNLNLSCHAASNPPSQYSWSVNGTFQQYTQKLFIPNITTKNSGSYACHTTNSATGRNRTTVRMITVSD
Test: in vitro assays using human tumor cell lines (method not detailed)

binding result: no binding
B1: NEO-201 humanized IgG1 monoclonal antibody (antibody, V domains shown)
VH: QVQLVQSGAEVKKPGASVKVSCKASGYTFTDYAMHWVRQAPGQRLEWMGLISTYSGDTKYNQNFQGRVTMTVDKSASTAYMELSSLRSEDTAVYYCARGDYSGSRYWFAYWGQGTLVTVSS
VL: DIQMTQSPSSLSASVGDRVTITCQASENIYGALNWYQRKPGKSPKLLIYGASNLATGMPSRFSGSGSGTDYTFTISSLQPEDIATYYCQQVLSSPYTFGGGTKLEIKR
notes: also called h16C3; H16C3-Abb*
